From article PMC9569640 (2022)
Square brackets hold non-standard residues; d marks the D form. Ends that are not written are not given here. FAM = FAM, a fluorescent label attached at the N-terminus of the peptide; pY = N[C@@H](Cc1ccc(OP(=O)(O)O)cc1)C(=O)O

Tests used:
Test in all cases: fluorescence polarization
CagA EPIYA-D 13-mer = CagA EPIYA-D 13-mer (Helicobacter pylori)
CagA EPIYA-A 13-mer = CagA EPIYA-A 13-mer (Helicobacter pylori)
CagA EPIYA-CD 8-mer = biological target: T1, CagA EPIYA-CD 8-mer (Helicobacter pylori)
T1 chain: {FAM}-EPI[pY]ATID

CagA EPIYA-B 13-mer = biological target: T2, CagA EPIYA-B 13-mer (Helicobacter pylori)
T2 chain: {FAM}-PEEPI[pY]AQVAKKV

CagA EPIYA-C 13-mer = biological target: T3, CagA EPIYA-C 13-mer (Helicobacter pylori)
T3 chain: {FAM}-SPEPI[pY]ATIDDLG

B1: SHIP2 SH2 (protein)
chain: APSWYHRDLSRAAAEELLARAGRDGSFLVRDSESVAGAFALCVLYQKHVHTYRILPDGEDFLAVQTSQGVPVRRFQTLGELIGLYAQPNQGLVCALLLPVEGE
Kd (CagA EPIYA-D 13-mer): 3.16 µM | Kd (CagA EPIYA-A 13-mer): 23.4 µM | Kd (CagA EPIYA-CD 8-mer): 4.45 µM | Kd (CagA EPIYA-B 13-mer): 18.6 µM | Kd (CagA EPIYA-C 13-mer): 2.96 µM
